# Source: patent US20210115102
# Columns and labels:
# [1] = test system: CTSL1_1 FRET substrate (ALFKSSFP)
# [2] = test system: CTSL1_2 8-mer FRET substrate Mca-ALFFSSPPK-Dnp
# [3] = test system: CTSL1_2 9-mer FRET substrate Mca-ALFFSSPPSK-Dnp
# Sequence of ALU30-13 (chain, as listed by the source): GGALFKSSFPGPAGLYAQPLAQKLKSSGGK
# Sequence of ALU30-6 (chain, as listed by the source): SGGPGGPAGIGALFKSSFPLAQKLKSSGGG
# Sequence of ALU30-9 (chain, as listed by the source): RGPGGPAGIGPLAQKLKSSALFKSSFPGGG
# Sequence of ALU30-18 (chain, as listed by the source): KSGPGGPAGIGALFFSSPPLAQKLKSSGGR
# Sequence of ALU30-5 (chain, as listed by the source): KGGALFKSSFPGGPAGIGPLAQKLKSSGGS
# Sequence of ALU30-12 (chain, as listed by the source): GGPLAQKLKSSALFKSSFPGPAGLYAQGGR
# Sequence of ALU30-7 (chain, as listed by the source): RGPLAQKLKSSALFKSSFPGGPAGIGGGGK
# Sequence of ALU30-8 (chain, as listed by the source): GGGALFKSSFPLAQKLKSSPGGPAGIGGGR
# Sequence of ALU30-1 (chain, as listed by the source): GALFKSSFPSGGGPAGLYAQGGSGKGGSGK
# Sequence of ALU30-2 (chain, as listed by the source): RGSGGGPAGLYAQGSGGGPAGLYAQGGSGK
# Sequence of ALU30-15 (chain, as listed by the source): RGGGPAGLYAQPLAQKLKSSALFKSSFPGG
# Sequence of ALU30-14 (chain, as listed by the source): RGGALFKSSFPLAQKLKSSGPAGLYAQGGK
# Sequence of ALU30-10 (chain, as listed by the source): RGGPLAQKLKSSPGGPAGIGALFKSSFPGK
# Sequence of MMP-9, recombinant human (chain, as listed by the source): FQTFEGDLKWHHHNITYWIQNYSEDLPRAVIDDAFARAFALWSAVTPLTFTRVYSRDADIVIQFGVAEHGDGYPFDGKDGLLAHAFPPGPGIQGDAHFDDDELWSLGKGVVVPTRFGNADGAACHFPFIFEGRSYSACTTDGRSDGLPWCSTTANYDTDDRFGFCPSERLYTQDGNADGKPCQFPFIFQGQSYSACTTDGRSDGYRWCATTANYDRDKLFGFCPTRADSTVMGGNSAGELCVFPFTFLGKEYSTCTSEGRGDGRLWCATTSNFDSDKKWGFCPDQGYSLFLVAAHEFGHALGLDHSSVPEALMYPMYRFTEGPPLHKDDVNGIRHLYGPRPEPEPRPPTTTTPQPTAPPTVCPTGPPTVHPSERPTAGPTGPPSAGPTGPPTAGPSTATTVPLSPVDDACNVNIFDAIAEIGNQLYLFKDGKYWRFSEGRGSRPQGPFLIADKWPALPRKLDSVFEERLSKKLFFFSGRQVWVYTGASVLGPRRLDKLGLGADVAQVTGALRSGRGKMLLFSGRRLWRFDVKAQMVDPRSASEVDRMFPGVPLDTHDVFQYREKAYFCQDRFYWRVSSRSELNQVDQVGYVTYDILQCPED
# Sequence of Cathepsin L (CTSL1), recombinant human (chain, as listed by the source): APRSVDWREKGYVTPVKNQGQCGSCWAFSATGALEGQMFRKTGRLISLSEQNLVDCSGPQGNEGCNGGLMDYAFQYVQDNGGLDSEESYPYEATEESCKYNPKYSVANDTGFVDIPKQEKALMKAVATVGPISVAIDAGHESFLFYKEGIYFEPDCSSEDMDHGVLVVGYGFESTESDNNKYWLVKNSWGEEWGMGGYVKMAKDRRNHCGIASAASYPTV
# Sequence of ALU30-16 (chain, as listed by the source): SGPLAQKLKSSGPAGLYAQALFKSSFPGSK
# Sequence of ALU30-11 (chain, as listed by the source): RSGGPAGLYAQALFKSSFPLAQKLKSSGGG
# Sequence of ALU30-17 (chain, as listed by the source): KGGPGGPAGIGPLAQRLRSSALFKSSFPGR
# Sequence of ALU30-4 (chain, as listed by the source): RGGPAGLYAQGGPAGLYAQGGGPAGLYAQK
# Sequence of ALU30-3 (chain, as listed by the source): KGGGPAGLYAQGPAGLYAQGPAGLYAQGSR
# Sequence of ALU30-19 (chain, as listed by the source): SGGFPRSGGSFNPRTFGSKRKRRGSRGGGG
Substance,30-mer substrate degradation (MSP-MS) (ALU30-10),30-mer substrate degradation (MSP-MS) (ALU30-11),30-mer substrate degradation (MSP-MS) (ALU30-12),30-mer substrate degradation (MSP-MS) (ALU30-13),30-mer substrate degradation (MSP-MS) (ALU30-14),30-mer substrate degradation (MSP-MS) (ALU30-15),30-mer substrate degradation (MSP-MS) (ALU30-16),30-mer substrate degradation (MSP-MS) (ALU30-17),30-mer substrate degradation (MSP-MS) (ALU30-18),30-mer substrate degradation (MSP-MS) (ALU30-1),30-mer substrate degradation (MSP-MS) (ALU30-2),30-mer substrate degradation (MSP-MS) (ALU30-3),30-mer substrate degradation (MSP-MS) (ALU30-4),30-mer substrate degradation (MSP-MS) (ALU30-5),30-mer substrate degradation (MSP-MS) (ALU30-6),30-mer substrate degradation (MSP-MS) (ALU30-7),30-mer substrate degradation (MSP-MS) (ALU30-8),30-mer substrate degradation (MSP-MS) (ALU30-9),further results
"Thrombin, recombinant human","Thrombin showed higher activity than Factor Xa, and it cleaved each of the 30-mer peptides.","Thrombin showed higher activity than Factor Xa, and it cleaved each of the 30-mer peptides.","the peptides Alu30-12, Alu30-13 and Alu30-15, with MMP14_1 motifs in combination with ADAM17_2 and CTSL1_1, were cleaved at lower efficiency by thrombin","the peptides Alu30-12, Alu30-13 and Alu30-15, with MMP14_1 motifs in combination with ADAM17_2 and CTSL1_1, were cleaved at lower efficiency by thrombin","Thrombin showed higher activity than Factor Xa, and it cleaved each of the 30-mer peptides.","the peptides Alu30-12, Alu30-13 and Alu30-15, with MMP14_1 motifs in combination with ADAM17_2 and CTSL1_1, were cleaved at lower efficiency by thrombin","Thrombin showed higher activity than Factor Xa, and it cleaved each of the 30-mer peptides.",The two alternate ADAM17 motifs were cleaved with similar efficiency (peptides Alu30-17 vs Alu30-9).,the CTSL1_2 motif had lower cleavage activity than did the CTSL1_1 motif (peptides Alu30-18 vs Alu30-6),The peptides Alu30-1 and Alu30-3 were the most rapidly cleaved in the library,"The peptide Alu30-2, bearing two MMP14_1 motifs, was less susceptible to thrombin",The peptides Alu30-1 and Alu30-3 were the most rapidly cleaved in the library,Alu30-4 was also an efficient substrate,"Thrombin showed higher activity than Factor Xa, and it cleaved each of the 30-mer peptides.",the CTSL1_2 motif had lower cleavage activity than did the CTSL1_1 motif (peptides Alu30-18 vs Alu30-6),"Thrombin showed higher activity than Factor Xa, and it cleaved each of the 30-mer peptides.","Thrombin showed higher activity than Factor Xa, and it cleaved each of the 30-mer peptides.",The two alternate ADAM17 motifs were cleaved with similar efficiency (peptides Alu30-17 vs Alu30-9).,"30-mer substrate degradation (MSP-MS) (ALU30-19): Thrombin showed higher activity than Factor Xa, and it cleaved each of the 30-mer peptides."
"Cathepsin L (CTSL1), recombinant human","The most efficiently cleaved peptides were those containing the FAPa_1, CTSL1_1 and ADAM17_2 motifs, in multiple orders.",Peptides bearing the MMP14_1 motif with CTSL1_1 and ADAM17_2 were slightly lower efficiency.,Peptides bearing the MMP14_1 motif with CTSL1_1 and ADAM17_2 were slightly lower efficiency.,Peptides bearing the MMP14_1 motif with CTSL1_1 and ADAM17_2 were slightly lower efficiency.,Peptides bearing the MMP14_1 motif with CTSL1_1 and ADAM17_2 were slightly lower efficiency.,Peptides bearing the MMP14_1 motif with CTSL1_1 and ADAM17_2 were slightly lower efficiency.,Peptides bearing the MMP14_1 motif with CTSL1_1 and ADAM17_2 were slightly lower efficiency.,CTSL1 treatment of the 30-mer peptide library produced cleavages in all peptides bearing a CTSL1_1 or CTSL1_2 motif,CTSL1 treatment of the 30-mer peptide library produced cleavages in all peptides bearing a CTSL1_1 or CTSL1_2 motif,CTSL1 treatment of the 30-mer peptide library produced cleavages in all peptides bearing a CTSL1_1 or CTSL1_2 motif,–,–,–,"The most efficiently cleaved peptides were those containing the FAPa_1, CTSL1_1 and ADAM17_2 motifs, in multiple orders.","The most efficiently cleaved peptides were those containing the FAPa_1, CTSL1_1 and ADAM17_2 motifs, in multiple orders.","The most efficiently cleaved peptides were those containing the FAPa_1, CTSL1_1 and ADAM17_2 motifs, in multiple orders.","The most efficiently cleaved peptides were those containing the FAPa_1, CTSL1_1 and ADAM17_2 motifs, in multiple orders.","The most efficiently cleaved peptides were those containing the FAPa_1, CTSL1_1 and ADAM17_2 motifs, in multiple orders.","cleavage efficiency of 30-mer library peptides (ALU30-15): lower CTSL1 activity; 30-mer cleavage (substrate disappearance and product formation) (ALU30-18): Both peptides showed rapid disappearance of substrate (squares) and product formation from cleavage at the target scissile bond; 30-mer cleavage (substrate disappearance and product formation) (ALU30-6): Both peptides showed rapid disappearance of substrate (squares) and product formation from cleavage at the target scissile bond; FRET substrate cleavage [1]: CTSL1 cleaves the FRET substrate bearing the CTSL1_1 motif highly efficiently; FRET substrate cleavage [2]: the new CTSL1_2 motif was not cleaved in the context of an 8-mer FRET peptide; FRET substrate cleavage, catalytic efficiency [3]: This 9-mer FRET substrate bearing the CTSL1_2 motif produced comparable catalytic efficiency to the CTSL1_1 motif"
"MMP-9, recombinant human",the FAPα_1 motif was also cleaved within the peptides bearing FAPα_1 directly followed by the CTSL1_1 motif at PGGPAG|GALF (SEQ ID NO: 247); these were lower efficiency cleavages,–,The slowest peptides bear the MMP14_1 motif near the C-terminus of the 30-mer peptide.,The next most efficient substrates contained the pair of motifs where MMP14_1 was followed directly by ADAM17_2.,The slowest peptides bear the MMP14_1 motif near the C-terminus of the 30-mer peptide.,The next most efficient substrates contained the pair of motifs where MMP14_1 was followed directly by ADAM17_2.,–,–,–,The single or double MMP14_1 motif-bearing peptides were next in the order.,The single or double MMP14_1 motif-bearing peptides were next in the order.,The most efficient MMP9 substrates were those that bore three-repeats of the MMP14_1 motif.,The most efficient MMP9 substrates were those that bore three-repeats of the MMP14_1 motif.,"The FAPα_1 motif was not cleaved by MMP9, however, when followed either by the ADAM17_2 motif or the spacing residues GG.",the FAPα_1 motif was also cleaved within the peptides bearing FAPα_1 directly followed by the CTSL1_1 motif at PGGPAG|GALF (SEQ ID NO: 247); these were lower efficiency cleavages,"The FAPα_1 motif was not cleaved by MMP9, however, when followed either by the ADAM17_2 motif or the spacing residues GG.","The FAPα_1 motif was not cleaved by MMP9, however, when followed either by the ADAM17_2 motif or the spacing residues GG.","The FAPα_1 motif was not cleaved by MMP9, however, when followed either by the ADAM17_2 motif or the spacing residues GG.",product formation at individual bonds (MSP-MS) (ALU30-1): the specific cleavage of the Alu30-2 peptide was more efficient than the Alu30-1 peptide; product formation at individual bonds (MSP-MS) (ALU30-2): the specific cleavage of the Alu30-2 peptide was more efficient than the Alu30-1 peptide
